Measured values as given in patent US20030054360.

Assays:
Test in all cases: filter
Endostatin = molecular target: T1, Endostatin (UniProt P39060); details: 5-BrdU replaces T; apparent photocrosslink KD; plateau 75%
T1 sequence: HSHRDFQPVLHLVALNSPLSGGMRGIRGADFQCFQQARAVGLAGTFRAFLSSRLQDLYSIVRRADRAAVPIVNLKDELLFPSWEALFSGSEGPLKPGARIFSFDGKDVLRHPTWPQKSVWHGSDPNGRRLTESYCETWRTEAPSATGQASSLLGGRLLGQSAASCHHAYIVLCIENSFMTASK

Collagen = details: 5-BrdU replaces T; apparent photocrosslink KD; plateau 25%
IGFBP-3 = IGFBP-3 (UniProt P17936); details: 5-BrdU replaces T; apparent photocrosslink KD; plateau 52%
Sequence of IGFBP-3 (P17936 28-291): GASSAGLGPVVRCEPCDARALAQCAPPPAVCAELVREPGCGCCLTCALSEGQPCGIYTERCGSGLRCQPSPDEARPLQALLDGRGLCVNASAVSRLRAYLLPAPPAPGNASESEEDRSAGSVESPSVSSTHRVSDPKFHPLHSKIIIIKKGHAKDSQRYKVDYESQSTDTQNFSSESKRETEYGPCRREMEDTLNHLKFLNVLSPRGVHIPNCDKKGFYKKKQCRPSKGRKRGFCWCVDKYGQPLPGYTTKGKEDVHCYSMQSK

[1] = molecular target: T2, UDP-glucuronosyl transferase (UGT) 1A1 (UniProt P22309); details: 5-BrdU replaces T; apparent photocrosslink KD; plateau 70%
T2 sequence: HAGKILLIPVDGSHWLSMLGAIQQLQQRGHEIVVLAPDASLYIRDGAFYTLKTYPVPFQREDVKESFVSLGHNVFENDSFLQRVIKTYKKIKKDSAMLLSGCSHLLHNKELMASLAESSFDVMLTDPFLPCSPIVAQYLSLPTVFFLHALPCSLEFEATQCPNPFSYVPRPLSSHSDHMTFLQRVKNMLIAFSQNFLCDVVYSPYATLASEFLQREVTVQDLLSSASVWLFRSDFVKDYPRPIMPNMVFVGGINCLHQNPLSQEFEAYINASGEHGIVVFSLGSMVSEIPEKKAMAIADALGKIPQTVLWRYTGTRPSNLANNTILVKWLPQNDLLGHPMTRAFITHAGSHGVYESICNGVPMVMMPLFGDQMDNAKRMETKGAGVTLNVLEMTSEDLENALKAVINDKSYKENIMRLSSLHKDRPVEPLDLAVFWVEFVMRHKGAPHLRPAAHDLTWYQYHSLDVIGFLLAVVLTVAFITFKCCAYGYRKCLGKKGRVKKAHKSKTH

[2] = molecular target: alpha-thrombin (Homo sapiens) (UniProt P00734+P00734); details: 5-BrdU replaces T, apparent photocrosslink KD
CTLA-4 Fc = CTLA-4 Fc (UniProt P16410); details: 5-BrdU replaces T; apparent photocrosslink KD; plateau 7%
Sequence of CTLA-4 Fc (P16410 36-161): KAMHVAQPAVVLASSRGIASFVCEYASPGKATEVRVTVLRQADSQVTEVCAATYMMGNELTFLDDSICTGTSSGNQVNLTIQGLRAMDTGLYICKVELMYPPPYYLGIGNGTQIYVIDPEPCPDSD

Factor H = Factor H (UniProt P08603); details: 5-BrdU replaces T; apparent photocrosslink KD; plateau 65%; abstract prints Factor II
Sequence of Factor H (P08603 19-1231): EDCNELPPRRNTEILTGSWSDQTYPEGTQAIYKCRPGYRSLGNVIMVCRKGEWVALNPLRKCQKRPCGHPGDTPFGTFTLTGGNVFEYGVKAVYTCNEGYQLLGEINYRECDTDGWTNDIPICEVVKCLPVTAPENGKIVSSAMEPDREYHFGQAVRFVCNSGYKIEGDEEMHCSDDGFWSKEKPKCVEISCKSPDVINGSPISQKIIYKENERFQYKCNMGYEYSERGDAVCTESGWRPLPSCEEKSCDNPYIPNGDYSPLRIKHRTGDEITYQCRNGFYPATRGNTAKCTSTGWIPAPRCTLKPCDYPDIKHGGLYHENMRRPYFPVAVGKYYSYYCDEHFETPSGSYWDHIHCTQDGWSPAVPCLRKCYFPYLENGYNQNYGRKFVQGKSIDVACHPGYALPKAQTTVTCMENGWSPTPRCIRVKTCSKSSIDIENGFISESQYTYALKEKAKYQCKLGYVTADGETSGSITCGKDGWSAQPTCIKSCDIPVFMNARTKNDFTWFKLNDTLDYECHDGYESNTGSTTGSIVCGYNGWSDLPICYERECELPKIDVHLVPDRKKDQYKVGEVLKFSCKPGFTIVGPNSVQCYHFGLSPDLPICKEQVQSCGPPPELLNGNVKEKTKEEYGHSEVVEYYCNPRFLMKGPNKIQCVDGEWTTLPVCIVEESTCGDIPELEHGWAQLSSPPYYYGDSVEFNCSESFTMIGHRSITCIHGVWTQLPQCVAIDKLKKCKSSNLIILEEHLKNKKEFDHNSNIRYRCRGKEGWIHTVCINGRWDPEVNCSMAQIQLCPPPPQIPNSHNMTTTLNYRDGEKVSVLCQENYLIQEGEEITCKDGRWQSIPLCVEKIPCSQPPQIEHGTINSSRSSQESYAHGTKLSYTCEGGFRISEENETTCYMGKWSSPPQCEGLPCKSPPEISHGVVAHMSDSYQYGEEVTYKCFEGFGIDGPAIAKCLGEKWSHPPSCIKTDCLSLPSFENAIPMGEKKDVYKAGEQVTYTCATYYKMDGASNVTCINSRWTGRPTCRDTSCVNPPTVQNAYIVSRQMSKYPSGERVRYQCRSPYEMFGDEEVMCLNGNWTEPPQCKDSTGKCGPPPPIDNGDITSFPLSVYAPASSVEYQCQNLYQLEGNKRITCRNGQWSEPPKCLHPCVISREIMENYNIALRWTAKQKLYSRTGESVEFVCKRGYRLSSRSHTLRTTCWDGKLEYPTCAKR

[3] = molecular target: T3, human neutrophil elastase (hNE) (Homo sapiens) (UniProt P08246); details: 5-BrdU replaces T
T3 sequence: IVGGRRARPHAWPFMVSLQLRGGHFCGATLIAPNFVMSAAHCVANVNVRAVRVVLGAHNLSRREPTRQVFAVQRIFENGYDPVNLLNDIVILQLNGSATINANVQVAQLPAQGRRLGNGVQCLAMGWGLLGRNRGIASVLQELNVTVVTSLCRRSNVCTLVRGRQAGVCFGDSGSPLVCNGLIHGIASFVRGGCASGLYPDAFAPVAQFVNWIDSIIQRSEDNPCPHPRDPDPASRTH

Kininogen = molecular target: T4, Kininogen (UniProt P01042); details: 5-BrdU replaces T; apparent photocrosslink KD; plateau 64%
T4 sequence: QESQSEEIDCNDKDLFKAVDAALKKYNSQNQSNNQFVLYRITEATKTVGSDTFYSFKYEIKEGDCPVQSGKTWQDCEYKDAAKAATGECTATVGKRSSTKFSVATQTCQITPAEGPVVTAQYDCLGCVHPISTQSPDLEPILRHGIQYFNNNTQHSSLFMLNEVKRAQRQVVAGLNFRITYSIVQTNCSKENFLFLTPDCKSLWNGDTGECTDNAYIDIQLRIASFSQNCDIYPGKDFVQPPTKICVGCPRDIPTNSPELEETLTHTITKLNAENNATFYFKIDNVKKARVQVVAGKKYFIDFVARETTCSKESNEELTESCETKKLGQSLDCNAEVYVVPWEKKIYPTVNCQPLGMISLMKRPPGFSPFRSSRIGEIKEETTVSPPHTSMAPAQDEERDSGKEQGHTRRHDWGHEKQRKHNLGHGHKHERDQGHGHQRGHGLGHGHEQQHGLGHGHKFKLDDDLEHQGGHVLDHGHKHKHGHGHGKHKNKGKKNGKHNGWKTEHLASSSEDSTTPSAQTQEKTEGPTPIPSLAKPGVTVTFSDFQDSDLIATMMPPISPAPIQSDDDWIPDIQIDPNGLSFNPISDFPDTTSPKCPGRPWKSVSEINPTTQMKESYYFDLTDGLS

Coagulation Factor IX = Coagulation Factor IX (UniProt P00740); details: 5-BrdU replaces T; apparent photocrosslink KD; plateau 75%
[4] = molecular target: Hepatocyte Growth Factor (HGF) (UniProt P14210+P14210); details: 5-BrdU replaces T; apparent photocrosslink KD; plateau 73%
Sequence of Hepatocyte Growth Factor (HGF) (P14210 32-494, chain 1 of 2): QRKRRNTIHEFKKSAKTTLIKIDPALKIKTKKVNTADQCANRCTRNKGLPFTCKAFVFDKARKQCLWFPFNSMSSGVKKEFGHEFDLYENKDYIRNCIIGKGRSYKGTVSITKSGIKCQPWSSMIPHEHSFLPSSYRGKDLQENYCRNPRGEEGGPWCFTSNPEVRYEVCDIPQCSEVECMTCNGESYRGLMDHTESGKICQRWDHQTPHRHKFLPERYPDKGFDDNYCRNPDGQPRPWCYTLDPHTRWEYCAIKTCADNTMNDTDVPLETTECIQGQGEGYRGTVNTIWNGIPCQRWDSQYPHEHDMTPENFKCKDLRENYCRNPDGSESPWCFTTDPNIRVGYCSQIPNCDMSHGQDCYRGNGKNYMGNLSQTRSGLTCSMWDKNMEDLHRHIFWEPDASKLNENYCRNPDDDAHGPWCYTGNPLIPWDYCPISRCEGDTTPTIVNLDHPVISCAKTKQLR
Sequence of Hepatocyte Growth Factor (HGF) (P14210 495-728, chain 2 of 2): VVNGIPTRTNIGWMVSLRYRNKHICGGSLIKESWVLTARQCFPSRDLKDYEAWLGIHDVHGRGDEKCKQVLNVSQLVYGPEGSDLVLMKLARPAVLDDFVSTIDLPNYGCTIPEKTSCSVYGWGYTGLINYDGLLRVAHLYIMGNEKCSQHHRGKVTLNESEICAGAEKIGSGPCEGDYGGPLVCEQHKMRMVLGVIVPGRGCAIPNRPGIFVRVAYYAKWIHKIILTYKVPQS

Coagulation Factor XII = molecular target: T5, Coagulation Factor XII (UniProt P00748); details: 5-BrdU replaces T; apparent photocrosslink KD; plateau 45%
T5 sequence: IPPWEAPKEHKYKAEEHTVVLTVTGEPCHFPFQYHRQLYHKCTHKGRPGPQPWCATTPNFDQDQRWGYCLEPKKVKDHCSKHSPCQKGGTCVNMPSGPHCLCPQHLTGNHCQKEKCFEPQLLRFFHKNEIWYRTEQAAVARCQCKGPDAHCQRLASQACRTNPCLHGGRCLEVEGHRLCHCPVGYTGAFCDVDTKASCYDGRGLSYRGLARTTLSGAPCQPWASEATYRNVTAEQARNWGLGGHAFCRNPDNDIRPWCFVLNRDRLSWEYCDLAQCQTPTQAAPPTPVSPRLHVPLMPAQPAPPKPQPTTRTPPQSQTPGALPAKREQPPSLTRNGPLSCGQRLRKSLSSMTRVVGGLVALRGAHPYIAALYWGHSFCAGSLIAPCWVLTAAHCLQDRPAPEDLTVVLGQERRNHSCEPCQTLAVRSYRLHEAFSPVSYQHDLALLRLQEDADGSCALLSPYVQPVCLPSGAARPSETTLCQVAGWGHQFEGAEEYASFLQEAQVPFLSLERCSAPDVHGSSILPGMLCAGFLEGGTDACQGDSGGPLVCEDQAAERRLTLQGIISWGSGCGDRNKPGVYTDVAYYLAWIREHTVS

Thrombopoietin (Tpo) = Thrombopoietin (Tpo) (UniProt P40225); details: 5-BrdU replaces T; apparent photocrosslink KD; plateau 50%
Sequence of Thrombopoietin (Tpo) (P40225 22-353): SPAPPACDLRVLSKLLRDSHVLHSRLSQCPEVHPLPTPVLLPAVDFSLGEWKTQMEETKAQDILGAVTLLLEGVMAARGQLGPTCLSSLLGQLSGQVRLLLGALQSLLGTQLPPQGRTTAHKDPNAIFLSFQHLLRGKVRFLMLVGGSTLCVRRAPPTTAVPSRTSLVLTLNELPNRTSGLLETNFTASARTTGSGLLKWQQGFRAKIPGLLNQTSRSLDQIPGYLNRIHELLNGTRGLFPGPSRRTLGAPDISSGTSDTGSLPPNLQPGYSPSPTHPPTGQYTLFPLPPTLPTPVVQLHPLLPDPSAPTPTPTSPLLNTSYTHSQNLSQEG

Serum Amyloid P = Serum Amyloid P (UniProt P02743); details: 5-BrdU replaces T; apparent photocrosslink KD; plateau 55%
Sequence of Serum Amyloid P (P02743 20-223): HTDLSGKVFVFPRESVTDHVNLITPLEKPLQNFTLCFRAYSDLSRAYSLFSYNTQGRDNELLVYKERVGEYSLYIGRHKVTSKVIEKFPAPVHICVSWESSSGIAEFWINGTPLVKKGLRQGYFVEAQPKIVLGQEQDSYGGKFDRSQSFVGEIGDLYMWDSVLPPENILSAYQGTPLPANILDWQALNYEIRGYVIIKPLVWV

Interleukin-7 = molecular target: T6, Interleukin-7 (UniProt P13232); details: 5-BrdU replaces T; apparent photocrosslink KD; plateau 50%
T6 sequence: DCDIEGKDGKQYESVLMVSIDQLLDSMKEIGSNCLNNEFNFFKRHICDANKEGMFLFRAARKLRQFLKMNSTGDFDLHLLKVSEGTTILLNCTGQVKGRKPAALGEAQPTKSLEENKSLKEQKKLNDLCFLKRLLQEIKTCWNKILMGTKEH

Plasmin = Plasmin (UniProt P00747+P00747); details: 5-BrdU replaces T; apparent photocrosslink KD; plateau 50%
Sequence of Plasmin (P00747 97-580, chain 1 of 2): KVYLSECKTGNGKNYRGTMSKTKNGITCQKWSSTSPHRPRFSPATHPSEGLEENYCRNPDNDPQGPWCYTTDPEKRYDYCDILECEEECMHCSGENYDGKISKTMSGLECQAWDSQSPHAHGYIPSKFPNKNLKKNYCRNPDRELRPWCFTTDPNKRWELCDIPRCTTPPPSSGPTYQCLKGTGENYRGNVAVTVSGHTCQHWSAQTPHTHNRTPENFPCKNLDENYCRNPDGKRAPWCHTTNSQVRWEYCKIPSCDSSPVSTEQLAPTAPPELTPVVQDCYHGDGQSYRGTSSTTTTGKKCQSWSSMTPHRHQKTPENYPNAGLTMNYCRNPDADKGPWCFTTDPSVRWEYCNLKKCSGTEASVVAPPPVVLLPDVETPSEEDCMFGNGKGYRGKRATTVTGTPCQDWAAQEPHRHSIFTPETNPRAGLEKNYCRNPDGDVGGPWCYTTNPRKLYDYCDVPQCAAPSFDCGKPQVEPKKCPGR
Sequence of Plasmin (P00747 581-810, chain 2 of 2): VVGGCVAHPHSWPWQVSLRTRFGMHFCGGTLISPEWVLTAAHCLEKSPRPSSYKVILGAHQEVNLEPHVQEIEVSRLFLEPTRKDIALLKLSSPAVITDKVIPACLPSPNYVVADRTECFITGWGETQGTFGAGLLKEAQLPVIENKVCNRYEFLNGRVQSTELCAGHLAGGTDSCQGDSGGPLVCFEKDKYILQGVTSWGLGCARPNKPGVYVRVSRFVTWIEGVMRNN

[5] = molecular target: Transforming Growth Factor beta1 (TGF-beta1) (UniProt P01137); details: 5-BrdU replaces T, apparent photocrosslink KD, plateau 80%
Sequence of Transforming Growth Factor beta1 (TGF-beta1) (P01137 279-390): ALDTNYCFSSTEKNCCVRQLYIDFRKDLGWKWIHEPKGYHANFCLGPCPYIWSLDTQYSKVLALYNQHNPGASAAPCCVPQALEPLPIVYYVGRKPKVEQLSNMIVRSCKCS

[6] = molecular target: T7, L-Selectin (Homo sapiens) (UniProt P14151); details: 5-BrdU replaces T; apparent photocrosslink KD; plateau 25%
T7 sequence: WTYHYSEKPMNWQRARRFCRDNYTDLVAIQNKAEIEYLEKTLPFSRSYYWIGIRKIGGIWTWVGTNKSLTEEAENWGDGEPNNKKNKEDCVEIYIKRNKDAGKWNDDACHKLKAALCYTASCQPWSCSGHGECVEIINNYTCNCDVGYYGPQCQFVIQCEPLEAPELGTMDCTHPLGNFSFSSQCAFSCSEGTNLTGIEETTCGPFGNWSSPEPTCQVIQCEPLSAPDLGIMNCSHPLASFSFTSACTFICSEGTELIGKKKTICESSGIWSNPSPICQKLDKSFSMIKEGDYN

## ATATATATGGGAGGACGATGCGGCACAATGAAGTCACTCTTGACGCTTGTATTCAGACGACGAGCGGGAAAAAAAA [Endostatin pool 92 clone 4]
Endostatin
  Kd: 2.7 nM

## ATATATATGGGAGGACGATGCGGCTACTCCTCCTTAACCCGGGTCTTGTGGCCCAGACGACGAGCGGGAAAAAAAA [Collagen pool 100 clone 36]
Collagen
  Kd: 0.75 nM

## ATATATATGGGAGGACGATGCGGGCAAAGTGTTATTTCTTGATCTGTTTCACCCAGACGACGAGCGGGAAAAAAAA [IGFBP-3 pool 112 clone 65]
IGFBP-3
  Kd: 6 nM

## ATATATATGGGAGGACGATGCGGCACCTGATTTCTACCCTTTACTTTGTGTGGCAGACGACGAGCGGGAAAAAAAA [UGT 1A1 pool 319 clone 73]
[1]
  Kd: 22 nM

## ATATATATGGGAGGACGATGCGGGCAGGACGGACAGCAAGGGGTGAGCACGAGCAGACGACGAGCGGGAAAAAAAA [Thrombin pool 5 clone 75]
[2]; plateau 62%
  Kd: 110 nM

## ATATATATGGGAGGACGATGCGGGAGGAGCTGATGGGTGGTGAGGTTGGCCAGACGACGAGCGGGAAAAAAAA [Thrombin pool 5 clone 51]
[2]; plateau 6%, rate 0.4
  Kd: 0.04 nM

## ATATATATGGGAGGACGATGCGGGACGCTAATACTTCTGGAGTGGAACGGTTTCAGACGACGAGCGGGAAAAAAAA [CTLA-4 Fc pool 101 clone 60]
CTLA-4 Fc
  Kd: 8 nM

## ATATATATGGGAGGACGATGCGGCCTCATAAAGTTACATCGGCAATTCTTCTCCAGACGACGAGCGGGAAAAAAAA [Factor H pool 94 clone 12]
Factor H
  Kd: 14 nM

## ATATATATGGGAGGACGATGCGGCAACCCACCACTCTATCTTTCCCATAACTGCAGACGACGAGCGGGAAAAAAAA [hNE pool 2 clone 43]
[3]; apparent photocrosslink KD, plateau 27%, rate 0.14
  Kd: 61 nM

## ATATATATGGGAGGACGATGCGGGACGCTAGTACCCTGGCTGGCTTGGTTGGGCAGACGACGAGCGGGAAAAAAAA [Kininogen pool 046 clone 31]
Kininogen
  Kd: 7 nM

## ATATATATGGGAGGACGATGCGGGCAGTAGGTTGGGTAGGGTGGTCTGCTCAGACGACGAGCGGGAAAAAAAA [Thrombin pool 5 clone 4]
[2]; plateau 25%, rate 0.4
  Kd: 0.03 nM

## ATATATATGGGAGGACGATGCGGGCGTCTGGGATTTGGACTTCTTCGCTAGCTCAGACGACGAGCGGGAAAAAAAA [Factor IX pool 87 clone 50]
Coagulation Factor IX
  Kd: 6.2 nM

## ATATATATGGGAGGACGATGCGGGACGACTAGCCTAGTGCCCTTACGATCACCCAGACGACGAGCGGGAAAAAAAA [HGF pool 107 clone 23]
[4]
  Kd: 0.53 nM

## ATATATATGGGAGGACGATGCGGGCGGTTGGCGTGGTTGGAAATGTCCCGTCAGACGACGAGCGGGAAAAAAAA [Thrombin pool 5 clone 77]
[2]; plateau 9%, rate 0.64, Table 7 sequence differs from listing (GGTTGCTGTGG vs ggttggcgtgg)
  Kd: 0.05 nM

## ATATATATGGGAGGACGATGCGGCTGCGTGACAGTTATACTGTTATTGGTCTTCAGACGACGAGCGGGAAAAAAAA [Factor XII pool 89 clone 51]
Coagulation Factor XII
  Kd: 53 nM

## ATATATATGGGAGGACGATGCGGGCACACCCAACCTTGCTTCTTCAATCTAATCTCCACTTTGCAGACGACGAGCGGGAAAAAAAA [Tpo pool 059 clone 34]
Thrombopoietin (Tpo)
  Kd: 64 nM

## ATATATATGGGAGGACGATGCGGGCCGACTCTGAGGAAAAGGTTTTATGTATGGCTACCCCTGCAGACGACGAGCGGGAAAAAAAA [Serum Amyloid P pool 051 clone 50]
Serum Amyloid P
  Kd: 0.54 nM

## ATATATATGGGAGGACGATGCGGGCTGAAAGGAAACGGACGATTGAGCTTCCCCTTACCTCTCCAGACGACGAGCGGGAAAAAAAA [IL-7 pool 042 clone 5]
Interleukin-7
  Kd: 11 nM

## ATATATATGGGAGGACGATGCGGCAACCCTGACACCACGTTGTTTCTCCTTTTGGGGTAACCGCAGACGACGAGCGGGAAAAAAAA [Plasmin pool 050 clone 25]
Plasmin
  Kd: 78 nM

## ATATATATGGGAGGACGATGCGGGACCATCCAATACCTTCCGTAACACTTTCCTTCTTCCTTCCAGACGACGAGCGGGAAAAAAAA [TGF-beta1 pool 015 clone 81]
[5]; rate 0.58
  Kd: 7.2 nM

## ATATATATGGGAGGACGATGCGGGCCAATCTGTCTTCTTTCCATCCTTATGATCAGACGACGAGCGGGAAAAAAAA [hNE pool 2 clone 73]
[3]; apparent photocrosslink KD, plateau 32%, rate 0.28
  Kd: 29 nM

## ATATATATGGGAGGACGATGCGGCCGGTTCACGTGCACCATCCGTGTGCTAGACAGACGACGAGCGGGAAAAAAAA [L-Selectin pool 048 clone 21]
[6]
  Kd: 7 nM

## ATATATATGGGAGGACGATGCGGGCACATCACTCTATCATTTGCTACGGTACCGGAGTGAGTCCAGACGACGAGCGGGAAAAAAAA [hNE pool 2 clone 18]
[3]; apparent KD from photocrosslinking 308 nm, plateau 37%, rate 0.72 J-1 cm2
  Kd: 21 nM

## ATATATATGGGAGGACGATGCGGGCACAATCAAGACCTCTCCAAACTTGAACTCTGTCTATCCCAGACGACGAGCGGGAAAAAAAA [TGF-beta1 pool 015 clone 87]
[5]; rate 0.5
  Kd: 62 nM
